Results reported in paper PMC7695343.

Biological target: integrin αvβ5 on human colon adenocarcinoma HT-29 cells (human (endogenous in HT-29)) (UniProt P06756)
Chain of UniProt P06756 (P06756 31-1048, chain 1 of 2): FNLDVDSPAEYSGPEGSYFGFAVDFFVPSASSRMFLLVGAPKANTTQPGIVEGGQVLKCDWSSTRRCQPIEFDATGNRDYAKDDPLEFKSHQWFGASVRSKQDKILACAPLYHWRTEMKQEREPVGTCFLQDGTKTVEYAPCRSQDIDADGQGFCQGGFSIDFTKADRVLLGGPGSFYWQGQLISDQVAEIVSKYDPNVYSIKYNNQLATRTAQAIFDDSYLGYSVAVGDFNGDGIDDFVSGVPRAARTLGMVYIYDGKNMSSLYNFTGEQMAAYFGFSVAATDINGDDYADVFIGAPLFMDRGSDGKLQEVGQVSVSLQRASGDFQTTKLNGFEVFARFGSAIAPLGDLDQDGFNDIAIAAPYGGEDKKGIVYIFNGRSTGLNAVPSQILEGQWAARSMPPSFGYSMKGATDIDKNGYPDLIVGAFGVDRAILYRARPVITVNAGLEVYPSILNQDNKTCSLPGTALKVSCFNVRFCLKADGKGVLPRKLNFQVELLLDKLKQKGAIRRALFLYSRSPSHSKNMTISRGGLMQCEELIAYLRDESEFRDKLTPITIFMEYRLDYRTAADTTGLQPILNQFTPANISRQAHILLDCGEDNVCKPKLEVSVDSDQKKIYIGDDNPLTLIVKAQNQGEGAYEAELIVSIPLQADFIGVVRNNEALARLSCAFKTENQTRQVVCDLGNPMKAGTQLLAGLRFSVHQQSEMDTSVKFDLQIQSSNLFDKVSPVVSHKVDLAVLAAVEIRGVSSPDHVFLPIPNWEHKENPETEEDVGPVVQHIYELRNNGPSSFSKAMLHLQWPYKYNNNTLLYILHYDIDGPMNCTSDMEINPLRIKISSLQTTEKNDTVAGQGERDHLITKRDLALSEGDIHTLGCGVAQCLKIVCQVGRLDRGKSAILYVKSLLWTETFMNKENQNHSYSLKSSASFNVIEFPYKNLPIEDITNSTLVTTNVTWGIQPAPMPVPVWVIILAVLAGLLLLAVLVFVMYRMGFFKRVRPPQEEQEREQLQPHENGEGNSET
Chain of UniProt P06756 (P18084 24-799, chain 2 of 2, further chain): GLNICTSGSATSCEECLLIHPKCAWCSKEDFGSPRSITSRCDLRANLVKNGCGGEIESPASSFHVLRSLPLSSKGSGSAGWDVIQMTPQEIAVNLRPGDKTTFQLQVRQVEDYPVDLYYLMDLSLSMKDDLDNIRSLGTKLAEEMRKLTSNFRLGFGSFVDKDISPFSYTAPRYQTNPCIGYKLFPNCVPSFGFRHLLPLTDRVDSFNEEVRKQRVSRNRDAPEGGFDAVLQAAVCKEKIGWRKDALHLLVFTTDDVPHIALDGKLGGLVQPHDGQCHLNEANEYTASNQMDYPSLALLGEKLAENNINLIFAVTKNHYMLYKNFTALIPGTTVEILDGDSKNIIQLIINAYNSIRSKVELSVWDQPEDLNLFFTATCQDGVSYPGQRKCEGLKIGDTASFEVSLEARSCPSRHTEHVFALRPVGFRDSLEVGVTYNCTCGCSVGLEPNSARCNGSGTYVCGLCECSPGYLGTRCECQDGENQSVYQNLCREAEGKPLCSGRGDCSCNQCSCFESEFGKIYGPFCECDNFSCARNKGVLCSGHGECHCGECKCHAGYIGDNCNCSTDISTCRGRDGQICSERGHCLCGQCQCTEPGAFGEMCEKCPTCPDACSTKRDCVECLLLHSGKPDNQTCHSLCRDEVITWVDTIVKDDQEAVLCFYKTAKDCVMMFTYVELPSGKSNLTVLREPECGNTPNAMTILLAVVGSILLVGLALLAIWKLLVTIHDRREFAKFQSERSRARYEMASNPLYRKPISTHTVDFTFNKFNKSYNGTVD

Substance “Echistatin (Ech), recombinant wild type with 6xHis-tag (natural protein)” has an IC50 of inhibition of HT29 cell adhesion to immobilized vitronectin (blocks αvβ5 with vitronectin) of 286 nM.
